Entries after “also recorded” stand apart in the source; their conditions may differ. Like-named read-outs stand apart in the source and are kept apart here. One block for each molecule: values may come before it.
Legend:
C5aR1 (C5aR1-U937 cells) = biological target: T1, C5aR1 (C5aR1-U937 cells) (Homo sapiens, UniProt P21730, K279N); test: C5a induced calcium flux (Fluo-4), C5aR1-U937 cells; assay type: cell-based
T1 construct: expressed in transfected cells
T1 sequence (P21730 with tags, fused parts or gaps K279N limits assumed): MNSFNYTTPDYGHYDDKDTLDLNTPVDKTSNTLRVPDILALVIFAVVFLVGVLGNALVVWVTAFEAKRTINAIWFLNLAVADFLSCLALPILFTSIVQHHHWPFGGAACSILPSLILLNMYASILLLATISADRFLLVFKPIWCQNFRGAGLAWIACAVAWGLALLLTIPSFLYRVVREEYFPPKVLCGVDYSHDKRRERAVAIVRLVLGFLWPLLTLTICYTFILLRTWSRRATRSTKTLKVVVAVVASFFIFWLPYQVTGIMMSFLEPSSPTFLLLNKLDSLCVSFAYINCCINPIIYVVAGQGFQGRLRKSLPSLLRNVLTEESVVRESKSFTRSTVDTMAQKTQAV
Text: Intracellular calcium is released into the cytoplasm by stimulation of GPCRs and acts as a second messenger of GPCR signaling, commonly used to quantify GPCR agonism and antagonism. As such, calcium flux assays using calcium sensitive dye were utilized to detect cytosolic changes in calcium concentration. […] The dye penetrated the cell membrane and became active once inside the cell. The active form of the dye became fluorescent after binding to intracellular calcium and the fluorescence was used to determine C5aR1 signaling in response to C5a addition. Specifically, stable C5aR1-U937 cells or neutrophils isolated from whole blood were stained with Fluo-4 Direct Calcium Assay kit from Thermo Fisher for 1 hour at 37° C. Next, antibody or antagonist was incubated with the cells for 30 minutes. The basal fluorescence with an excitation at 494 nm and emission at 516 nm was measured for 15 seconds. C5a was added to the cells and the fluorescence was measured over a span of four minutes. The basal read from before C5a stimulation and the max signal after C5a stimulation were used to calculate the response ratio. The potency of the antibodies was assessed for their ability to inhibit intracellular calcium release in C5aR1 expressing cells in the presence of C5a. Similar to the chemotaxis assay, the calcium flux assays were performed using engineered cells stably expressing C5aR1 as well as using human neutrophils.

[1] = biological target: T2, biotinylated peptide representing ECL2 of C5aR1 (Homo sapiens, UniProt P21730); test: Epitope mapping by biolayer interferometry, ECL2 peptide; assay type: binding; parameters: key: “+” indicates binding to the listed peptide; “−” indicates lack of binding to the listed peptide
T2 construct: cyclic ECL2 peptide spanning from residues R175 to C188
Experimental: (§1) The epitope mapping was undertaken, using biolayer interferometry, on a series of exemplary anti-C5aR1 antibodies generated as described in Example 1. Briefly, for each antibody, biotinylated peptides representing ECL2, the N-terminus with tyrosine sulfation, and the N-terminus without tyrosine sulfation, were immobilized in a streptavidin biosensor. Subsequently, the biosensor was exposed to 10 μg/mL of antibody to detect antibody binding to the immobilized peptide. The results of the epitope mapping study are shown in Table 4 (“+” indicates binding to the listed peptide; “−” indicates lack of binding to the listed peptide).

[2] = biological target: T3, biotinylated peptide representing the N-terminus of C5aR1 with tyrosine sulfation (Homo sapiens, UniProt P21730); test: Epitope mapping by biolayer interferometry, N-terminus with tyrosine sulfation; assay type: binding; parameters: key: “+” indicates binding to the listed peptide; “−” indicates lack of binding to the listed peptide; settings: 10 μg/mL of antibody, biotinylated peptide on streptavidin biosensor
T3 construct: the N-terminus with tyrosine sulfation
T3 sequence (P21730 1-37): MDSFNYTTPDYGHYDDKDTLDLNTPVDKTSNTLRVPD
Experimental: as §1

[3] = test system: C5aR1 mutants (N-terminus, ECL1, ECL2, ECL3); test: Alanine scanning / mutagenesis epitope mapping of C5aR1; assay type: binding, human
Text: FIG. 5A is a diagram showing the results of alanine scanning mutations of site I interaction with mab 583. The N-terminal amino acid sequence of C5aR1 is listed across the top of the figure. Glycosylation sites are indicated by rectangle boxes. The only natural glycosylation site is at position N5. The other sites were introduced by mutagenesis. Mutations that abolished clone 583 binding are circled. The sulfated tyrosines at positions 11 and 14 are marked with a star sign. FIG. 5B is a diagram showing results of alanine scanning mutations of site I interaction with mab 66. Mutations that abolished clone 66 binding are circled. The sulfated tyrosines at positions 11 and 14 are marked with a star sign.
Ala substitutions of T8 & D10 moderately reduces its affinity while Y11 & D15 abolishes mAb binding. […] N-glycosylation of at N17 or D17P also abolishes mAb binding. N5 glycan is tolerated but a tandem glycosylation (N5 & N17) is not tolerated. mAb core epitopes are T8-G12 but nature of AA present in D15-D18 influence its binding. […] The core epitope appears to be located near T8-G12, with additional contributions from D15-D18.
Clone 66 was previously characterized as a site I binder and its binding is dependent on tyrosine sulfation at positions 11Y and/or 14Y. […] It should be noted that the only the only non-human species to retain clone 66 binding was baboon, which is the only NHP that retains the DYGHY motif.
However, it was unknown if additional contacts were made with ECL1 or ECL3. […] The data is highlighted in FIG. 5C-5E.
The core epitope of clone 11 is from E180-P183; the core epitope of clone 329 is from E180-P184; and the core epitope of clone 336 is from R178-P183. […] The data for clones 11, 329, and 336 is highlighted in FIG. 5F.

[4] = biolayer interferometry, 10 μg/mL of antibody, biotinylated peptide on streptavidin biosensor

- Binding to Cyclic ECL2 peptide [1, 4]: −
- Binding to Sulfated N-terminal peptide [2]: +
B1: clone 583: anti-C5aR1 Site I antibody; VH SEQ ID NO: 536, VL SEQ ID NO: 595 (antibody, V domains shown)
VH: EVQLVESGGGLVKPGGSLKLSCAASGFTFNAYAMSWVRQTPEKRLEWVASISTGGNTYCPDSVKDRFTVSRDNVRNILYLQMSSLRSEDTAMYYCTRGYQRFSGFAYWGQGTLVTVS
VL: DVVMTQTPLSPPVSLGYQASISCRSSQSLVHSNGNTYLNWYLQKPGQSPKLLIYKVSNRLSGVPDRFSGSGSGTDFTLKISRVETEDLGVYFCSQSTHVPYTFGGGTKLEIK
- inhibition of C5a induced intracellular calcium flux (C5aR1 (C5aR1-U937 cells)): inhibition of the C5a induced calcium efflux
- cross-reactivity to cyno and rhesus monkey [3]: lack of cross-reactivity
- requirement of tyrosine sulfation (Y11, Y14) for binding [3]: tyrosine sulfation is not required
- binding to C5aR1 mutant ([3]; G12A/T): tolerated
- binding to C5aR1 mutant ([3]; G12E/D): abolish binding
- binding to C5aR1 mutant ([3]; mutations at D15): abolish binding
- binding to C5aR1 mutant ([3]; mutations at positions 13 and 14): tolerated

- Binding to Cyclic ECL2 peptide [1, 4]: −
- Binding to Sulfated N-terminal peptide [2]: +
B2: clone 66: anti-C5aR1 Site I antibody; VH SEQ ID NO: 483, VL SEQ ID NO: 543 (antibody, V domains shown)
VH: QVQLQQSDAELVKPGASVKISCKASGYTFIDHAIHWVKQRPEQGLEWIGYISPGNGEIKYNEKFKAKATLTADKSSSAAYMQLNSLTSADSAVYFCKRALFYYTGKYQPMDYWGQGTTVTDSS
VL: DIVMTQSQKFMSTTAGDRVSITCKASQNVGSAVVWYQQKPGRSPKLLIYSSSIRYTGVPDRFTGSGSGTDFTLTINSVQSEDLADYFCQQYNSFPLTFGAGTKLEIK
- inhibition of C5a induced intracellular calcium flux (C5aR1 (C5aR1-U937 cells)): inhibited calcium flux as single agents in a dose-dependent manner
- non-human species that retains binding [3]: baboon
- requirement of tyrosine sulfation (Y11, Y14) for binding [3]: sulfation is only required at position 14

- Binding to Cyclic ECL2 peptide [1, 4]: +
- Binding to Cyclic ECL2 peptide ([1]; peptide spanning residues R175 to C188): bound to a cyclic ECL2 peptide
- Binding to Sulfated N-terminal peptide [2]: −
B3: clone 329: anti-C5aR1 Site II antibody; VH SEQ ID NO: 492, VL SEQ ID NO: 552 (antibody, V domains shown)
VH: QVQLQQSGAELTKPGASVKLSCKASGYTFTNYWMHWVKQRPGQGLEWIGYLNPSSGYTKYNQKFKDKATLTADKSSSTAYMQLNSLTYEDSAVYYCTRSGGDNYGNPYYFDRWGQGTTVTVSS
VL: DVVMTQTPLSLTVSLGDQASISCRSSQSLVHSNGNTYLHWYLQKPGQSPKFLIYKVSNRFSGVPDRFSGSGSGTDFRLKISRVEAEDLGVYFCSQSTLVPLTFGAGTKLEIK
- inhibition of C5a induced intracellular calcium flux (C5aR1 (C5aR1-U937 cells); listed as 329): inhibition of the C5a induced calcium efflux; also recorded: inhibited by antibody 329 in a dose-dependent manner; also recorded: inhibited calcium flux as single agents in a dose-dependent manner
- binding to C5aR1 mutant ([3]; Ala mutation of E180 & Y181): abolished mAb binding
- binding to C5aR1 mutant ([3]; mutation of Y182, P183 & P184): reduced binding
